Measurements: paper PMC3682496

Target: maltose-binding protein (MBP-DHhN) modified with 6-azicholestanol (not stated | Drosophila)
Test: cross-linking

stoichiometry N: 1
Substance: Scube2, HA-tagged (from UniProt Q9JJS0 29-997) (natural protein)
